Results as given in patent publication US5597899A, “Tumor necrosis factor muteins” (Hoffmann-La Roche Inc., priority 1993, dated 1997).

Assays:
human TNFR-p55 = assay: Solid phase radioligand competition binding assay, E. coli lysates, TNFR-p55; conditions: for Dilution of E. coli Lysate for 50% Inhibition of 125I-TNFα Binding (ID50) TNFR-p55: 10-fold serial dilutions 10^-2 to 10^-7, < = inhibition but below 50% at 1:100, << = no measurable inhibition at 1:100; for ID50 TNFR-p55 / ID50 TNFR-p75: ratio = 1 no receptor selectivity, > 1 TNFR-p55 selectivity, < 1 TNFR-p75 selectivity
Experimental: (§1) After 20 min incubation at room temperature 50 μl of 1M MgCl2, 20 μl of 5 mg/ml DNaseI, 50 μl of 5M NaCl and 50 μl of 10% NP-40 were added and the mixture was further incubated at room temperature for 15 min. 0.5 ml of the lysate clarified by centrifugation at 13'000 rpm for 5 min was subjected to ammonium sulfate precipitation (25%-70% cut). The 70% ammonium sulfat pellet was dissolved in 0.2 ml PBS and analyzed by sodium dodecyl sulfate polyacrylamide gel electrophoresis (SDS-PAGE) to confirm presence and approximate amount of the recombinant proteins.
TNFα was labelled by the Iodogen method (Pierce Chemical Company) to a specific activity of about 10-30 μCi/μg. The volume was 100 μl/well and each lysate dilution was assayed in duplicate or triplicate. After three hours at room temperature the wells were thoroughly washed with PBS and counted in a γ-counter. The results are given in Table 2 for lysates comprising the muteins indicated therein.

human TNFR-p75 = assay: Solid phase radioligand competition binding assay, E. coli lysates, TNFR-p75; conditions: 10-fold serial dilutions 10^-2 to 10^-7, < = inhibition but below 50% at 1:100, << = no measurable inhibition at 1:100
Experimental: as §1, with “10 ml suspensions of E. coli cells transformed and induced as described in Examples I and II were centrifuged at 4'000 rpm for 10 min and resuspended in 0.9 ml of lysis buffer (10 mM Tris-HCl pH 8.0, 5 mM EDTA, 2 mM PMSF, 10 mM benzamidine, 200 units/ml aprotinine and 0.1 mg/ml lysozyme). After” for “After”
96 well microtiter plates were coated with recombinant human […] TNFR-p75-hγ3 and TNFR-p55-hγ3 fusion proteins (extracellular portion of the receptor fused to the Fc part of human IgG3) at a concentration of 0.3 μg/ml and 0.1 μg/ml, respectively, in phosphate buffered saline (PBS, 100 μl/well, overnight at 4° C.) [Loetscher, H. et al. J. Biol. Chem. 266, 18324-18329 (1991); Lesslauer, W. et al. Eur. J. Immunol. 21, 2883-2886 (1991)]. After blocking with blocking buffer (50 mM Tris pH 7.4, 140 mM NaCl, 5 mM EDTA, 0.02% NAN3, 1% defatted milk powder) the microtiter plate was washed with PBS and incubated in blocking buffer containing 0.1% defatted milk powder with 10 ng/ml human wild-type ^125 I-TNFα and various dilutions of E. coli lysates ranging from 10^-2 to 10^-7 (10-fold serial dilutions). TNFα was labelled by the Iodogen method (Pierce Chemical Company) to a specific activity of about 10-30 μCi/μg. The volume was 100 μl/well and each lysate dilution was assayed in duplicate or triplicate. After three hours at room temperature the wells were thoroughly washed with PBS and counted in a γ-counter. The results are given in Table 2 for lysates comprising the muteins indicated therein.

Row | Molecule | Dilution of E. coli Lysate for 50% Inhibition of 125I-TNFα Binding (ID50) TNFR-p55 (human TNFR-p55) | ID50 TNFR-p55 / ID50 TNFR-p75 (human TNFR-p55) | Dilution of E. coli Lysate for 50% Inhibition of 125I-TNFα Binding (ID50) TNFR-p75 (human TNFR-p75)
1 | N34V: human TNFα mutein N34V | < 100 fold | > 1 | < 100 fold
2 | Y115W: human TNFα mutein Y115W | 2,220 fold | 1 | 2,220 fold
3 | L29S-R32W-S86T: human TNFα mutein L29S-R32W-S86T (protein) VRSSSRTPSDKPVAHVVANPQAEGQLQWSNRWANALLANGVELRDNQLVVPSEGLYLIYSQVLFKGQGCPSTHVLLTHTISRIAVTYQTKVNLLSAIKSPCQRETPEGAEAKPWYEPIYLGGVFQLEKGDRLSAEINRPDYLDFAESGQVYFGIIAL | 2,500 fold | > 25 | < 100 fold
4 | D143V-F144L-A145S: human TNFα mutein D143V-F144L-A145S (protein) VRSSSRTPSDKPVAHVVANPQAEGQLQWLNRRANALLANGVELRDNQLVVPSEGLYLIYSQVLFKGQGCPSTHVLLTHTISRIAVSYQTKVNLLSAIKSPCQRETPEGAEAKPWYEPIYLGGVFQLEKGDRLSAEINRPDYLVLSESGQVYFGIIAL | < 100 fold | < 1 | < 100 fold
5 | R31N-R32T-S86T: human TNFα mutein R31N-R32T-S86T (protein) VRSSSRTPSDKPVAHVVANPQAEGQLQWLNNTANALLANGVELRDNQLVVPSEGLYLIYSQVLFKGQGCPSTHVLLTHTISRIAVTYQTKVNLLSAIKSPCQRETPEGAEAKPWYEPIYLGGVFQLEKGDRLSAEINRPDYLDFAESGQVYFGIIAL | 500 fold | > 5 | < 100 fold
6 | R31N-R32T-N34S: human TNFα mutein R31N-R32T-N34S (protein) VRSSSRTPSDKPVAHVVANPQAEGQLQWLNNTASALLANGVELRDNQLVVPSEGLYLIYSQVLFKGQGCPSTHVLLTHTISRIAVSYQTKVNLLSAIKSPCQRETPEGAEAKPWYEPIYLGGVFQLEKGDRLSAEINRPDYLDFAESGQVYFGIIAL | < 100 fold | 1 | < 100 fold
